Data from paper PMC7057995, “Structural basis of RNA polymerase I pre-initiation complex formation and promoter melting”.

Target: Core factor (CF) wild type: Rrn6/Rrn7/Rrn11 (Saccharomyces cerevisiae, UniProt P32786;P40992;Q04712 1-894;1-514;1-507)
Assay: EMSA; 0.2 pmol DNA; 0.25, 0.5, 1 pmol CF; EMSA: 20 mM HEPES/KOH pH 7.8, 10% glycerol, 200 mM KCl, 1 mM MgCl2, 0.1 mg/ml BSA, 1 mM DTT, 30 min, temperature not stated; 6% native gel, 0.5x TBE
Conditions: protein: recombinant; tags: His (Ni-NTA purified); copies: 1;1;1; label: NTS -3 Atto647N; TS -5 Cy3; blunt

Chain of Core factor (CF) wild type: Rrn6/Rrn7/Rrn11 (P32786 whole entry, chain 1 of 3): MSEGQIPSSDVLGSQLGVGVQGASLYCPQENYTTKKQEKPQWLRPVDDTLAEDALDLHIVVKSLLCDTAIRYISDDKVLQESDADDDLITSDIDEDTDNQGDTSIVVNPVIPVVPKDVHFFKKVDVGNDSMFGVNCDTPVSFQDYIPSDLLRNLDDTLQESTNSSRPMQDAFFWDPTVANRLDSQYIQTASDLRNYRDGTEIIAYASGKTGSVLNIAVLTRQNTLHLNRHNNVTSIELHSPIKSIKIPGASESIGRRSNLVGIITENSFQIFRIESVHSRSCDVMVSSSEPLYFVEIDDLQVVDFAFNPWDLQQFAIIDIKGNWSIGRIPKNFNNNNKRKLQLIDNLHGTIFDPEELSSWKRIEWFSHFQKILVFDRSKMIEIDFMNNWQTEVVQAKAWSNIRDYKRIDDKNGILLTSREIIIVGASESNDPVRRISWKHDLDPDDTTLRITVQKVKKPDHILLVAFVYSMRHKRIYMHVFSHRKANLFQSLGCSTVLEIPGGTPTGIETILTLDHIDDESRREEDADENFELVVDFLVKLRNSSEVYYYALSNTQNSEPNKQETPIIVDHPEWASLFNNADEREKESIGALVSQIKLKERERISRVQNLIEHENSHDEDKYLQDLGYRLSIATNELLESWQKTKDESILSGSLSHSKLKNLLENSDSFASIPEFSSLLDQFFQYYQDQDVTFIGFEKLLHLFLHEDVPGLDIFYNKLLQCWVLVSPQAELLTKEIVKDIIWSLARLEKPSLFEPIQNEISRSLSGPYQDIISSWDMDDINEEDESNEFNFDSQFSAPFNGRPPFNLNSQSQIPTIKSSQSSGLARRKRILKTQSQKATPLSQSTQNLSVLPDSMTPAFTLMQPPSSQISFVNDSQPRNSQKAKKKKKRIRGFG
Chain of Core factor (CF) wild type: Rrn6/Rrn7/Rrn11 (P40992 whole entry, chain 2 of 3): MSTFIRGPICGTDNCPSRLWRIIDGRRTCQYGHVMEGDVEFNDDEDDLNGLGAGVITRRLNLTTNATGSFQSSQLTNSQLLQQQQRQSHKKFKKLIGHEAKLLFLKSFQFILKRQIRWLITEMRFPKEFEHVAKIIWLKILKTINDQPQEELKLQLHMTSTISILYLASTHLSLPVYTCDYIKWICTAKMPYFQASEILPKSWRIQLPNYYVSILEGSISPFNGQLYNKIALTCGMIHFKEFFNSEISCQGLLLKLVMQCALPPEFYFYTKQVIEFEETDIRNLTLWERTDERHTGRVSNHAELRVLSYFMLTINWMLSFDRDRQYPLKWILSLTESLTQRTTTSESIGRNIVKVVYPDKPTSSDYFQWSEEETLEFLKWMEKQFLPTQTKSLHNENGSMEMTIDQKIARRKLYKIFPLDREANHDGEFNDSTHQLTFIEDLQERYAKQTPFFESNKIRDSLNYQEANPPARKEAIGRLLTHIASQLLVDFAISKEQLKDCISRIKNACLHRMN
Chain of Core factor (CF) wild type: Rrn6/Rrn7/Rrn11 (Q04712 whole entry, chain 3 of 3): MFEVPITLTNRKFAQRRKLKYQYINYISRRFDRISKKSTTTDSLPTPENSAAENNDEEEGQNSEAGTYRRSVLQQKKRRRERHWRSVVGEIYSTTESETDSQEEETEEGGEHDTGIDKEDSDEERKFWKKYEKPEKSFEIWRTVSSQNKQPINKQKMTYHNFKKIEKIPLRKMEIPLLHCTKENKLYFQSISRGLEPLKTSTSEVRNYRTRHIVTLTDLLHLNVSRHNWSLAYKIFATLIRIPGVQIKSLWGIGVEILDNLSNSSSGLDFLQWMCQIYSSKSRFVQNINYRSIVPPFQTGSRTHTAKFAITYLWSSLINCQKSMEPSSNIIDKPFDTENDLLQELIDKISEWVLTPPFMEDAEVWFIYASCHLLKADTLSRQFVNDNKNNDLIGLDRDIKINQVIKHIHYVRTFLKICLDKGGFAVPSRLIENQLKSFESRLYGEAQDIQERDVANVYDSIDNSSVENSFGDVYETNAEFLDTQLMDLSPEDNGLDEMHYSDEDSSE

B1: rDNA promoter -83 to +26 (EMSA; ID 4691/4692) (dsDNA)
DNA 1: AAAAGTAAGATTTTAGTTTGTAATGGGAGGGGGAATTTAGTCATGGAGTACAAGTGTGAGGAAAAGTAGTTGGGAGGTACTTCATACCAAAGGGGTTCAACACAAGGGT
DNA 2: ACCCTTGTGTTGAACCCCTTTGGTATGAAGTACCTCCCAACTACTTTTCCTCACACTTGTACTCCATGACTAAATTCCCCCTCCCATTACAAACTAAAATCTTACTTTT
B1: binds.
